Target: the molecule itself
Assay: SEC-MALS

B1: N-terminal A20 protein bearing the OTU domain (residues 1-370), wild type (domain or fragment, UniProt P21580 1-370, looked up)
chain: MAEQVLPQALYLSNMRKAVKIRERTPEDIFKPTNGIIHHFKTMHRYTLEMFRTCQFCPQFREIIHKALIDRNIQATLESQKKLNWCREVRKLVALKTNGDGNCLMHATSQYMWGVQDTDLVLRKALFSTLKETDTRNFKFRWQLESLKSQEFVETGLCYDTRNWNDEWDNLIKMASTDTPMARSGLQYNSLEEIHIFVLCNILRRPIIVISDKMLRSLESGSNFAPLKVGGIYLPLHWPAQECYRYPIVLGYDSHHFVPLVTLKDSGPEIRAVPLVNRDRGRFEDLKVHFLTDPENEMKEKLLKEYLMVIEIPVQGWDHGTTHLINAAKLDEANLPKEINLVDDYFELVQHEYKKWQENSEQGRREGHAQ
  stoichiometry N: 2
